In data set [1] the target is T1, linear (M1-linked) tetraubiquitin (UniProt P0CG48 1-76; P0CG48 1-76; P0CG48 1-76; P0CG48 1-76).
T1 construct: ubiquitin, 76-residue unit, first of four joined head to tail (residues 1-76 of the chain); ubiquitin, 76-residue unit, second of four (residues 77-152 of the chain); ubiquitin, 76-residue unit, third of four (residues 153-228 of the chain); ubiquitin, 76-residue unit, fourth of four (residues 229-304 of the chain); Construct was a gift of P. Elliott and D. Komander; no tag or extra residues are …
Briefly: ITC; NEMO titrated into Ub3 or Ub4 in the cell; 298 K; 50 mM sodium phosphate pH 7.0, 50 mM NaCl; triplicate. To be noted: both partners purified.

For data set [2], the target named is T2, linear (M1-linked) triubiquitin (UniProt P0CG48 1-76; P0CG48 1-76; P0CG48 1-76).
T2 construct: ubiquitin, 76-residue unit, first of three joined head to tail (residues 1-76 of the chain); ubiquitin, 76-residue unit, second of three (residues 77-152 of the chain); ubiquitin, 76-residue unit, third of three (residues 153-228 of the chain); Construct was a gift of P. Elliott and D. Komander; no tag or extra residues are told; One polypeptide of three ubiquitin units linked M1 to C-terminus; …
Described as above. To be noted: both partners purified.

The target in data set [3] is T1, linear (M1-linked) tetraubiquitin. Briefly: SPR; Ub3 and Ub4 immobilised by amine coupling (456 and 721 RU); NEMO injected in a twofold series; 25°C; 50 mM sodium phosphate, 50 mM NaCl, 0.005% Tween 20, pH 7; equilibrium responses fitted to a 1:1 Langmuir isotherm. To be noted: both partners purified.
The target in data set [4] is T2, linear (M1-linked) triubiquitin. The data set is described as above. To be noted: both partners purified.
Data set [5] deals with T1, linear (M1-linked) tetraubiquitin. Briefly: SEC-MALS; SEC (Superdex 200 10/300 GL, 4°C) with static light scattering (right-angle, Viscotek TDA 305, 30°C); about 8 mg/ml; 50 mM tris-HCl, 300 mM NaCl pH 8.0 and 50 mM sodium phosphate, 50 mM NaCl pH 7.0. As to conditions: both partners purified. In general terms: Size exclusion chromatography separates by hydrodynamic size, large species first.

Data set [6] deals with the molecule itself. The data set is described as above.
The target of data set [7] is T2, linear (M1-linked) triubiquitin. The data set is described as above. To be noted: both partners purified.

This note sets out measurements from article PMC7556843, “The dynamics of linear polyubiquitin” (Science Advances, 2020).

As a reminder, the Kd is a measure of binding affinity in units of concentration.

T1 sequence (P0CG48 1-304, one chain of several): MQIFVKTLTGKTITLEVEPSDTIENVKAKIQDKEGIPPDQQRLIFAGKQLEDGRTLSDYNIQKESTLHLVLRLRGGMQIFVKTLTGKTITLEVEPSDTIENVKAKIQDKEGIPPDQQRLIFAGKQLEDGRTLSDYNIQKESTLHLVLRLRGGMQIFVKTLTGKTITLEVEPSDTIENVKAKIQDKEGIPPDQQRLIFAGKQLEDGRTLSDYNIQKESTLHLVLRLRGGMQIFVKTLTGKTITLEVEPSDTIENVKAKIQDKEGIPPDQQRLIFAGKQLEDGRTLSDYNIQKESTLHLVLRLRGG
T2 sequence (P0CG48 1-228, one chain of several): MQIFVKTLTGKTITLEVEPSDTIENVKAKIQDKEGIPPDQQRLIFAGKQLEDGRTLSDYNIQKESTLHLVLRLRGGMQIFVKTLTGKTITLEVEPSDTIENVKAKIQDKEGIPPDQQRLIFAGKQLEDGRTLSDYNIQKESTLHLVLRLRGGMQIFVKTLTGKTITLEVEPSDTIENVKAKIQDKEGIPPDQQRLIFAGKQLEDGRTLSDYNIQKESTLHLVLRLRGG

B1: Human NEMO258-350 C347S (NEMO UBAN domain) (domain or fragment, UniProt Q9Y6K9 258-350, looked up)
chain: MQLEDLKQQLQQAEEALVAKQEVIDKLKEEAEQHKIVMETVPVLKAQADIYKADFQAERQAREKLAEKKELLQEQLEQLQREYSKLKASSQES
notes: NEMO (IKKγ, NF-κB essential modulator), human, residues 258-350 (UBAN domain) with C347S; also called NEMO mutant (C347S); IKKγ; source: expressed and purified as described in Vincendeau et al. (23)
Regarding B1, the Kd was 4.1 µM in data set [1], 1600 nM in data set [2], 6.4 µM in data set [3] and 9.6 µM in data set [4]. Also, the dH in data set [1] was -18.8 kJ/mol; in data set [2], -17.9 kJ/mol. Moreover, the “stoichiometry N” value in data set [5] is 2 NEMO:Ub4; in data set [7], 2 NEMO:Ub3. Besides, in data set [6], the binding result is “binds”.
